# In article PMC6082832, “Effects of polymorphic variation on the thermostability of heterogenous populations of CYP3A4 and CYP2C9 enzymes in solution” (Scientific Reports, 2018):
# Target: the molecule itself
# Assay: SEC; BioSep-SEC-S3000 column (5-700 kDa), room temperature, 0.5 ml/min, 100 mM potassium phosphate pH 7.4; 20 µl sample at ~2 mg/ml total protein; monitored at 410 nm; sizes estimated from the Bio-Rad gel filtration standard calibration curve
protein,measurement,value
"CYP2C9 wild-type, N-terminally truncated, His-tagged recombinant protein (enzyme, human, UniProt P11712 29-490, looked up, biotin on the BCCP tag (50 µM biotin added to facilitate biotinylation), cytochrome P450 2C9, human; Vector pBJW102.2 (pQE-80L with BCCP and a glycine-serine linker 3' to the His-6 tag); also called CYP2C9 WT; source: E. coli DH5α, purified (Protino Ni-TED His-tag purification)) LPPGPTPLPVIGNILQIGIKDISKSLTNLSKVYGPVFTLYFGLKPIVVLHGYEAVKEALIDLGEEFSGRGIFPLAERANRGFGIVFSNGKKWKEIRRFSLMTLRNFGMGKRSIEDRVQEEARCLVEELRKTKASPCDPTFILGCAPCNVICSIIFHKRFDYKDQQFLNLMEKLNENIKILSSPWIQICNNFSPIIDYFPGTHNKLLKNVAFMKSYILEKVKEHQESMDMNNPQDFIDCFLMKMEKEKHNQPSEFTIESLENTAVDLFGAGTETTSTTLRYALLLLLKHPEVTAKVQEEIERVIGRNRSPCMQDRSHMPYTDAVVHEVQRYIDLLPTSLPHAVTCDIKFRNYLIPKGTTILISLTSVLHDNKEFPNPEMFDPHHFLDEGGNFKKSKYFMPFSAGKRICVGEALAGMELFLFLTSILQNFNLKSLVDPKNLDTTPVVNGFASVPPFYQLCFIPV",stoichiometry N,~8 subunits
